Source: the supplement of paper PMC10567573

B1: EPB41L3 (parent)
chain: FRFAPNHTKELEDKVIELHKSHRG
B2: KRT13 (parent)
chain: YGGGLGGGFGGGFAGGFVDFGACD

Variants of: B1
Experiment: protein stability index of a GFP-peptide fusion (GPS, HEK-293T) (PSI 1-6); higher = more stable
Settings: c terminus: a fixed tail appended
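Also: lentivirally expressed fusions sorted by FACS into six bins by GFP to DsRed ratio, PSI derived from sequencing read proportions per bin multiplied by bin number.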

Protein stability index of substitutions, site by site:
F1: T 4.12, M 3.68, Q 3.89, R 4.41, E 4.2, W 2.26, G 3.6, Y 3.73, K 4.35, N 3.62, H 4.62, S 4.58, I 2.69, A 4.17, V 3.08, L 3.78, D 4.4, C 2.93, P 3.99
R2: L 2.78, P 3.82, E 4.02, I 2.03, T 3.79, V 2.36, S 3.56, Q 3.89, C 3.36, N 3.96, D 3.5, W 2.88, H 2.01, A 3.49, Y 3.27, G 3.94, M 2.89, F 2.81, K 3.81
F3: A 3.78, D 4.48, M 4.02, G 4.63, E 4.57, K 4.63, P 4.25, N 4.21, S 4.07, R 3.6, Q 4.16, H 4.03, I 3.86, L 3.48, C 3.74

Variants of: B2
Experiment: as above
Settings: c terminus: a fixed tail appended

Protein stability index: each site, then its substitutions
G21: M 2.21, N 1.68, E 1.88, S 2.02, V 1.6, A 2.25, H 1.93, P 1.67, W 1.99, C 1, D 1.92, Q 1.76, R 2.37, Y 3.5, T 2.69, I 1.99, F 2.87, K 1.93
V18: H 2.44, G 3.27, N 1.5, K 2.09, Q 1.92, D 1.93, R 2.95, L 1.38, T 2.17, E 1.78, C 1.38, I 1.6, W 2.79, Y 1.58, M 1.65, P 1.96, S 3.77
A22: Q 2.34, K 1.98, V 2.4, S 1.2, D 1.42, P 2.27, Y 1.99, M 2.09, N 1.95, L 1.2, I 1.33, E 1.92, F 2.1, T 1.9, H 1.54, W 1.75, C 1.9
D19: P 1.32, T 1.95, V 2.61, R 1.96, G 2.41, Y 2.33, K 2, C 1.86, A 3.27, Q 1.41, S 2.12, W 3.27
F20: H 2.69, R 1.78, I 1.27, P 1.69, T 2.22, N 2.31, G 1.75, W 2.62, A 1.69, M 1.53, L 1.56, Q 2.36, D 2.19, E 2.18, K 2.11, S 1.82, V 1.36, Y 1.5
D24: E 2.57, R 2.16, T 1.91, P 1.85, Q 1.91, H 1.49, W 3.82, S 2.43, I 5.23, F 2.17, V 2.45, K 1.43, N 3.54
C23: G 1.83, A 3.97, H 2.2, Y 1.6, R 2.79, E 2.14, V 1.22, M 1.49, T 1.81, P 1.8, K 2.01, Q 1.31, S 1.92, I 1.53, N 1.76, L 1.72, W 1.84, D 1.31, F 1.41
